Source: publication PMC11665475, “The CTR hydrophobic residues of Nem1 catalytic subunit are required to form a protein phosphatase complex with Spo7 to activate yeast Pah1 PA phosphatase” (The Journal of Biological Chemistry, 2024)

Tests used:
Assay in all cases: cell-based or functional assay
[1] = molecular target: T1, protein A-tagged Nem1 Δ(414–446) (S. cerevisiae, UniProt P38757 1-413)
T1 sequence (looked up): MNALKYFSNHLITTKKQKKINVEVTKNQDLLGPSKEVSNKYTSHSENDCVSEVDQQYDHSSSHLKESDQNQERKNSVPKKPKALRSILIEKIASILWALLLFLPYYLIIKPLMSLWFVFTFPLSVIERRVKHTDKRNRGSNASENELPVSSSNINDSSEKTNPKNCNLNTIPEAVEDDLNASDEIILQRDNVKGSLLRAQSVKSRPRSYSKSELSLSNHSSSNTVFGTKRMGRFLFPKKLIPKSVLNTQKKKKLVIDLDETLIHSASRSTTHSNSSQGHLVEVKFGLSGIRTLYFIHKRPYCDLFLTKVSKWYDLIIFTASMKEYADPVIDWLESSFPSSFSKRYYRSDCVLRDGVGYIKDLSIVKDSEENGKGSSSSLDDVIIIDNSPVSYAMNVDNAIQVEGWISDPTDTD

protein A-tagged Nem1 8R = molecular target: T2, protein A-tagged Nem1 8R (S. cerevisiae, UniProt P38757 1-446, L414 R | L415 R | L417 R | L418 R | L421 R | V430 R | L434 R | L436 R)
T2 sequence (looked up): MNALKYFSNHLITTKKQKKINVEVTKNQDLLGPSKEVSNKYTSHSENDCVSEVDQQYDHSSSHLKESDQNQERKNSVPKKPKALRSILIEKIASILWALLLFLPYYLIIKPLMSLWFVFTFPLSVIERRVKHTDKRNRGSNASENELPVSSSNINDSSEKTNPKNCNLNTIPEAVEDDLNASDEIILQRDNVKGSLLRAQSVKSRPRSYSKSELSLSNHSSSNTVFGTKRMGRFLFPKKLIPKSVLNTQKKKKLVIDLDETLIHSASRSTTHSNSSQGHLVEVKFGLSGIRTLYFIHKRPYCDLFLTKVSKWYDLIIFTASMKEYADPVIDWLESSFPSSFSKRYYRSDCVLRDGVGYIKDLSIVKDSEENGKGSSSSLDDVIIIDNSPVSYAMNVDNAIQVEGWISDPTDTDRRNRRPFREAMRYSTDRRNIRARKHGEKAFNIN

protein A-tagged Nem1 8A = molecular target: T3, protein A-tagged Nem1 8A (S. cerevisiae, UniProt P38757 1-446, L414 A | L415 A | L417 A | L418 A | L421 A | V430 A | L434 A | L436 A)
T3 sequence (looked up): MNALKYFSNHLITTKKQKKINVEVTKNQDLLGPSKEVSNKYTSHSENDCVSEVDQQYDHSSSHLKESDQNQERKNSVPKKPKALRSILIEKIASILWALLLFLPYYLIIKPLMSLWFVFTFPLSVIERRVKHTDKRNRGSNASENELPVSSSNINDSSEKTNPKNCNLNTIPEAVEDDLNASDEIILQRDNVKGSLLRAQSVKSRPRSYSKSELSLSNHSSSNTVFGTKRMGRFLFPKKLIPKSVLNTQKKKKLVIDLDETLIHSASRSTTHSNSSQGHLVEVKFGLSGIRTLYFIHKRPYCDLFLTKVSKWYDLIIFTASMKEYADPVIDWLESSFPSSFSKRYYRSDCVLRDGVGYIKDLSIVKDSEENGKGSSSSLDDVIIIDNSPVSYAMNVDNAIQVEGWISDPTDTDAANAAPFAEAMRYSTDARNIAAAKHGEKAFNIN

Measured: share of purified phosphorylated Pah1 found in the pellet of membranes containing the Nem1-PtA variant and Spo7 after centrifugation at 100,000g (translocation of Pah1 to membranes)

B1: Spo7 (natural protein, S. cerevisiae, UniProt P18410 1-259, looked up)
chain: MEPESIGDVGNHAQDDSASIVSGPRRRSTSKTSSAKNIRNSSNISPASMIFRNLLILEDDLRRQAHEQKILKWQFTLFLASMAGVGAFTFYELYFTSDYVKGLHRVILQFTLSFISITVVLFHISGQYRRTIVIPRRFFTSTNKGIRQFNVKLVKVQSTWDEKYTDSVRFVSRTIAYCNIYCLKKFLWLKDDNAIVKFWKSVTIQSQPRIGAVDVKLVLNPRAFSAEIREGWEIYRDEFWAREGARRRKQAHELRPKSE
≤ 20%: all assays above
